The results in this text go back to patent US20180037651A1 (Janssen / Centocor, published 2018).

First the molecules themselves.
B1: GC5B472 (antibody, V domains shown)
VH: EVQLVQSGAEVKKPGESLKISCKGSGYSFTSYVIGWVRQMPGKGLEWMGIIYPGASDTRYSPSFQGQVTISADKSISTAYLQWSSLKASDTAMYYCARVYSFGGRHKALFDYWGQGTLVTVSS
VL: EIVLTQSPATLSLSPGERATLSCRASQSVSSYLAWYQQKPGQAPRLLIYDASNRATGIPARFSGSGSGTDFTLTISSLEPEDFAVYYCQQRSNWPLTFGQGTKVEIK
notes: GC5B164 PTM variant; also called GC5H277
B2: GC5B480 (antibody, V domains shown)
VH: EVQLVQSGAEVKKPGESLKISCKGSGYSFTSYAIGWVRQMPGKGLEWMGIIYPGSSDTRYSPSFQGQVTISADKSISTAYLQWSSLKASDTAMYYCARVYSFGGRHKALFDYWGQGTLVTVSS
VL: EIVLTQSPATLSLSPGERATLSCRASQSVSSYLAWYQQKPGQAPRLLIYDASNRATGIPARFSGSGSGTDFTLTISSLEPEDFAVYYCQQRSNWPLTFGQGTKVEIK
notes: GC5B164 PTM variant; also called GC5H269
B3: GC5B481 (antibody, V domains shown)
VH: EVQLVQSGAEVKKPGESLKISCKGSGYSFTSYYIGWVRQMPGKGLEWMGIIYPGKSDTRYSPSFQGQVTISADKSISTAYLQWSSLKASDTAMYYCARVYSFGGRHKALFDYWGQGTLVTVSS
VL: EIVLTQSPATLSLSPGERATLSCRASQSVSSYLAWYQQKPGQAPRLLIYDASNRATGIPARFSGSGSGTDFTLTISSLEPEDFAVYYCQQRSNWPLTFGQGTKVEIK
notes: GC5B164 PTM variant; also called GC5H268
B4: GC5B485 (antibody, V domains shown)
VH: EVQLVQSGAEVKKPGESLKISCKGSGYSFTSYAIGWVRQMPGKGLEWMGIIYPGKSDTRYSPSFQGQVTISADKSISTAYLQWSSLKASDTAMYYCARVYSFGGRHKALFDYWGQGTLVTVSS
VL: EIVLTQSPATLSLSPGERATLSCRASQSVSSYLAWYQQKPGQAPRLLIYDASNRATGIPARFSGSGSGTDFTLTISSLEPEDFAVYYCQQRSNWPLTFGQGTKVEIK
notes: GC5B164 PTM variant; also called GC5H264
B5: GC5B479 (antibody, V domains shown)
VH: EVQLVQSGAEVKKPGESLKISCKGSGYSFTSYGIGWVRQMPGKGLEWMGIIYPGSSDTRYSPSFQGQVTISADKSISTAYLQWSSLKASDTAMYYCARVYSFGGRHKALFDYWGQGTLVTVSS
VL: EIVLTQSPATLSLSPGERATLSCRASQSVSSYLAWYQQKPGQAPRLLIYDASNRATGIPARFSGSGSGTDFTLTISSLEPEDFAVYYCQQRSNWPLTFGQGTKVEIK
notes: GC5B164 PTM variant; also called GC5H270
B6: GC5B486 (antibody, V domains shown)
VH: EVQLVQSGAEVKKPGESLKISCKGSGYSFTSYYIGWVRQMPGKGLEWMGIIYPGESDTRYSPSFQGQVTISADKSISTAYLQWSSLKASDTAMYYCARVYSFGGRHKALFDYWGQGTLVTVSS
VL: EIVLTQSPATLSLSPGERATLSCRASQSVSSYLAWYQQKPGQAPRLLIYDASNRATGIPARFSGSGSGTDFTLTISSLEPEDFAVYYCQQRSNWPLTFGQGTKVEIK
notes: GC5B164 PTM variant; also called GC5H263
B7: GC5B477 (antibody, V domains shown)
VH: EVQLVQSGAEVKKPGESLKISCKGSGYSFTSYVIGWVRQMPGKGLEWMGIIYPGSSDTRYSPSFQGQVTISADKSISTAYLQWSSLKASDTAMYYCARVYSFGGRHKALFDYWGQGTLVTVSS
VL: EIVLTQSPATLSLSPGERATLSCRASQSVSSYLAWYQQKPGQAPRLLIYDASNRATGIPARFSGSGSGTDFTLTISSLEPEDFAVYYCQQRSNWPLTFGQGTKVEIK
notes: GC5B164 PTM variant; also called GC5H272
B8: GC5B476 (antibody, V domains shown)
VH: EVQLVQSGAEVKKPGESLKISCKGSGYSFTSYYIGWVRQMPGKGLEWMGIIYPGSSDTRYSPSFQGQVTISADKSISTAYLQWSSLKASDTAMYYCARVYSFGGRHKALFDYWGQGTLVTVSS
VL: EIVLTQSPATLSLSPGERATLSCRASQSVSSYLAWYQQKPGQAPRLLIYDASNRATGIPARFSGSGSGTDFTLTISSLEPEDFAVYYCQQRSNWPLTFGQGTKVEIK
notes: GC5B164 PTM variant; also called GC5H273
B9: GC5B483 (antibody, IgG4, V domains shown)
VH: EVQLVQSGAEVKKPGESLKISCKGSGYSFTSYFIGWVRQMPGKGLEWMGIIYPGKSDTRYSPSFQGQVTISADKSISTAYLQWSSLKASDTAMYYCARVYSFGGRHKALFDYWGQGTLVTVSS
VL: EIVLTQSPATLSLSPGERATLSCRASQSVSSYLAWYQQKPGQAPRLLIYDASNRATGIPARFSGSGSGTDFTLTISSLEPEDFAVYYCQQRSNWPLTFGQGTKVEIK
notes: GC5B164 PTM variant D55K, W33F; IgG4 S228P, L234A, L235A; also called GC5H266
B10: GC5B484 (antibody, V domains shown)
VH: EVQLVQSGAEVKKPGESLKISCKGSGYSFTSYGIGWVRQMPGKGLEWMGIIYPGKSDTRYSPSFQGQVTISADKSISTAYLQWSSLKASDTAMYYCARVYSFGGRHKALFDYWGQGTLVTVSS
VL: EIVLTQSPATLSLSPGERATLSCRASQSVSSYLAWYQQKPGQAPRLLIYDASNRATGIPARFSGSGSGTDFTLTISSLEPEDFAVYYCQQRSNWPLTFGQGTKVEIK
notes: GC5B164 PTM variant; also called GC5H265
B11: GC5B473 (antibody, V domains shown)
VH: EVQLVQSGAEVKKPGESLKISCKGSGYSFTSYFIGWVRQMPGKGLEWMGIIYPGASDTRYSPSFQGQVTISADKSISTAYLQWSSLKASDTAMYYCARVYSFGGRHKALFDYWGQGTLVTVSS
VL: EIVLTQSPATLSLSPGERATLSCRASQSVSSYLAWYQQKPGQAPRLLIYDASNRATGIPARFSGSGSGTDFTLTISSLEPEDFAVYYCQQRSNWPLTFGQGTKVEIK
notes: GC5B164 PTM variant; also called GC5H276
B12: GC5B475 (antibody, V domains shown)
VH: EVQLVQSGAEVKKPGESLKISCKGSGYSFTSYAIGWVRQMPGKGLEWMGIIYPGASDTRYSPSFQGQVTISADKSISTAYLQWSSLKASDTAMYYCARVYSFGGRHKALFDYWGQGTLVTVSS
VL: EIVLTQSPATLSLSPGERATLSCRASQSVSSYLAWYQQKPGQAPRLLIYDASNRATGIPARFSGSGSGTDFTLTISSLEPEDFAVYYCQQRSNWPLTFGQGTKVEIK
notes: GC5B164 PTM variant; also called GC5H274
B13: GC5B474 (antibody, V domains shown)
VH: EVQLVQSGAEVKKPGESLKISCKGSGYSFTSYGIGWVRQMPGKGLEWMGIIYPGASDTRYSPSFQGQVTISADKSISTAYLQWSSLKASDTAMYYCARVYSFGGRHKALFDYWGQGTLVTVSS
VL: EIVLTQSPATLSLSPGERATLSCRASQSVSSYLAWYQQKPGQAPRLLIYDASNRATGIPARFSGSGSGTDFTLTISSLEPEDFAVYYCQQRSNWPLTFGQGTKVEIK
notes: GC5B164 PTM variant; also called GC5H275
B14: GC5B478 (antibody, V domains shown)
VH: EVQLVQSGAEVKKPGESLKISCKGSGYSFTSYFIGWVRQMPGKGLEWMGIIYPGSSDTRYSPSFQGQVTISADKSISTAYLQWSSLKASDTAMYYCARVYSFGGRHKALFDYWGQGTLVTVSS
VL: EIVLTQSPATLSLSPGERATLSCRASQSVSSYLAWYQQKPGQAPRLLIYDASNRATGIPARFSGSGSGTDFTLTISSLEPEDFAVYYCQQRSNWPLTFGQGTKVEIK
notes: GC5B164 PTM variant; also called GC5H271
B15: GC5B482 (antibody, V domains shown)
VH: EVQLVQSGAEVKKPGESLKISCKGSGYSFTSYVIGWVRQMPGKGLEWMGIIYPGKSDTRYSPSFQGQVTISADKSISTAYLQWSSLKASDTAMYYCARVYSFGGRHKALFDYWGQGTLVTVSS
VL: EIVLTQSPATLSLSPGERATLSCRASQSVSSYLAWYQQKPGQAPRLLIYDASNRATGIPARFSGSGSGTDFTLTISSLEPEDFAVYYCQQRSNWPLTFGQGTKVEIK
notes: GC5B164 PTM variant; also called GC5H267

The target of this test is T1, human GPRC5D (human, UniProt Q9NZD1 1-345).
T1 construct: on transfected HEK293/RBL cells or endogenous on myeloma cells (H929, MM1R, OPM2, LP1, JIM3, patient plasma cells); also called G protein-coupled receptor class C group 5 member D; hGPRC5D
T1 sequence (Q9NZD1 whole entry): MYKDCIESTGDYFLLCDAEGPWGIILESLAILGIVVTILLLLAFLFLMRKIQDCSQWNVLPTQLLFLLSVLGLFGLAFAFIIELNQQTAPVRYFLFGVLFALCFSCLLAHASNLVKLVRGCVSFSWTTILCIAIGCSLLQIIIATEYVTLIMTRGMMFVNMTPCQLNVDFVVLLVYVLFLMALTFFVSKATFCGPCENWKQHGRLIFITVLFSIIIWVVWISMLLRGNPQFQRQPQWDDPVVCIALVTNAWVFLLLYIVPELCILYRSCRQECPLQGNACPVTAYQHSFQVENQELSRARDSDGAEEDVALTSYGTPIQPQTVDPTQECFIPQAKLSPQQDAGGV
Briefly: FACS, human GPRC5D cells. In general terms: In flow cytometry, cells or beads pass a laser one at a time.
For the molecule B1, the MFI is 1000 to 10000 mfi. Then B2, with 1000 to 10000 mfi; and B3, with over 10000 mfi.

Consider B4, for which the MFI fell in the range of 1000 to 10000 mfi. Take B5: the MFI fell in the range of 1000 to 10000 mfi.

Regarding B6, the MFI is over 10000 mfi. To B7 belongs 1000 to 10000 mfi. Consider B8, for which the MFI is over 10000 mfi. To B9 belongs over 10000 mfi. To B10 belongs 1000 to 10000 mfi; to B11, over 10000 mfi; to B12, 1000 to 10000 mfi. Then B13, with 1000 to 10000 mfi; and B14, with over 10000 mfi. In turn, B15 came in with an MFI of over 10000 mfi.
